Consider three substances from article PMC2665295.

Read-outs that look alike come from different tables or passages of the source.

For experiment [1], the target named is rat αCaMKII (Ca2+/calmodulin-dependent protein kinase II, α subunit) (rat) (UniProt P11275).
The target is the same in experiment [2]. Briefly: ITC. (In general: ITC needs no label: the signal is the heat of the interaction.)
Experiment [3] has the same target. Kind of experiment: ITC. The source holds these as a separate data set.
The target is the same in experiment [4]. Briefly: ITC. The source holds these as a separate data set.
For experiment [5] the target is unchanged. Briefly: ITC. The source holds these as a separate data set.

rat αCaMKII (Ca2+/calmodulin-dependent protein kinase II, α subunit) (rat), sequence (P11275 whole entry): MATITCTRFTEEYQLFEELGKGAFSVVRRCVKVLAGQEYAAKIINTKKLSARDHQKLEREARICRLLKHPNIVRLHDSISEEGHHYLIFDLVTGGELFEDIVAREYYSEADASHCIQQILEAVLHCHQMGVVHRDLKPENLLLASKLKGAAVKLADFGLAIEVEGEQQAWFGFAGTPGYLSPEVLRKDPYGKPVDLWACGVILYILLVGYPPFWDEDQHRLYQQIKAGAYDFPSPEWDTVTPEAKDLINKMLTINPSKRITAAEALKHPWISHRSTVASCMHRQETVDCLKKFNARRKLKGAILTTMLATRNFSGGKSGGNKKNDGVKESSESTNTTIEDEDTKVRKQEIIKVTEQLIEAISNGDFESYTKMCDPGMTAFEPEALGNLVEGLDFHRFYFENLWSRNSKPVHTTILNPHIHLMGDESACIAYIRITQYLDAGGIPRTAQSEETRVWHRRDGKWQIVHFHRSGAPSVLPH

What is called Kd is a measure of binding affinity in units of concentration. By stoichiometry N is commonly meant the number of molecules, sites or subunits per partner or assembly. In experiment [1], “CaMCC, a chimeric molecule composed of two C-lobes of CaM” came in with an activation of CaMKII (phosphorylation of syntide), K0.5 of 1.4 µM. In experiment [2], this substance returned a Kd of 360 nM, a dH of -7.3 kcal/mol and a stoichiometry N of 0.979. In experiment [3], this substance came in with a Kd of 370 nM, a dH of -6.5 kcal/mol and a stoichiometry N of 0.84.
For “CaMNN, a chimeric molecule composed of two N-lobes of CaM”, in experiment [2], the Kd1 (binding mode 1) stood at 18 nM, the Kd2 (binding mode 2) was 360 nM, the N1 (binding mode 1) was 0.36 and the N2 (binding mode 2) worked out at 0.61. Further, in experiment [2], the dH1 (binding mode 1) was -6.3 kcal/mol and the dH2 (binding mode 2) was -14.7 kcal/mol. In addition, in experiment [3], the Kd1 (binding mode 1) is 0.064 µM, the Kd2 (binding mode 2) was 0.34 µM, the N1 (binding mode 1) came to 0.26 and the N2 (binding mode 2) is 0.62. In addition, in experiment [3], the dH1 (binding mode 1) turned out to be 0.7 kcal/mol and the dH2 (binding mode 2) is -18.1 kcal/mol.
Regarding “wild-type calmodulin (from UniProt P0DP23 1-149) (natural protein; other documents disagree on this pair)”, in experiment [4], the Kd amounted to 1900 nM, the dH was 1.7 kcal/mol and the stoichiometry N is 0.823. Moreover, in experiment [5], the dH is -11.1 kcal/mol and the stoichiometry N worked out at 1.08. Moreover, in experiment [3], the Kd came to 1320 nM, the dH was -12.8 kcal/mol and the stoichiometry N turned out to be 0.83.
